± gives the standard deviation.
Assay: protein stability index of a GFP-peptide fusion (GPS, HEK-293T) (PSI 1-6); higher = more stable
[1] = treatment: DMSO, c terminus: a fixed tail appended
[2] = treatment: MLN4924 1 uM, 8 h, c terminus: a fixed tail appended
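Also: 24-mer peptide tiles fused after GFP, lentivirally expressed, FACS-sorted into six equal bins by GFP/DsRed ratio, decoded by Illumina sequencing, PSI is the read-weighted mean bin number.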

## YQLPQMPDVVVRSFMTWLRSYIKL [MED27]
[1]
  protein stability index: 2.01 ± 0.13
[2]
  protein stability index: 2.25 ± 0.21

## LFFIDGSTPSDNIVRRFLNICENT [CDC14A]
[1]
  protein stability index: 2.37 ± 0.17
[2]
  protein stability index: 2.22 ± 0.24

## REGALRAALQRSLAAALAQHSVPL [TRADD]
[1]
  protein stability index: 2.25 ± 0.3
[2]
  protein stability index: 2.28 ± 0.2

## ARKARKYEIPHFRLKKVENIKIWL [PHTF1]
[1]
  protein stability index: 2.09 ± 0.83
[2]
  protein stability index: 1.96 ± 0.46

## WDPHNGDILMEFGHLFPPPTPIFA [WSB1]
[1]
  protein stability index: 2.38 ± 0.31
[2]
  protein stability index: 2.21 ± 0.27

## VLIFKSILFLPCLRKKILKIRHGW [STEAP1]
[1]
  protein stability index: 2.16 ± 0.51
[2]
  protein stability index: 2.38 ± 0.25

## EHAIAEAQKNMYFKTRLKCPRSLS [ZNF396]
[1]
  protein stability index: 3.26 ± 0.23
[2]
  protein stability index: 3.53 ± 0.3

## FAAEAGHIDIVKELIKWRAAIVVN [FEM1B]
[1]
  protein stability index: 2.3 ± 0.28
[2]
  protein stability index: 2.02 ± 0.55

## LIGDLIGHSSSVEMFLYFEDHGLV [WDR41]
[1]
  protein stability index: 2.57 ± 0.51
[2]
  protein stability index: 2.83 ± 0.81

## SIEGTIPFSKPVKVYIMPKPARR [INTS4]
treatment: DMSO, c terminus: native
  protein stability index: 2.42 ± 0.33
treatment: MLN4924 1 uM, 8 h, c terminus: native
  protein stability index: 2.56 ± 0.45

## STTEGIQLAKELGATYLELHSLDD [RHOBTB3]
[1]
  protein stability index: 3.77 ± 0.3
[2]
  protein stability index: 4.16 ± 0.37

## LLISSCDWMAAMFGGPFVESSTRE [RHOBTB2]
[1]
  protein stability index: 2.68 ± 0.52
[2]
  protein stability index: 2.37 ± 0.48

## RPIPTPVGSVHVDSGASAITRESH [CSNK1G1]
[1]
  protein stability index: 4.86 ± 0.33
[2]
  protein stability index: 4.9 ± 0.27

## YYLRKGKKINSNQLENEQSQENSI [SPANXN3]
[1]
  protein stability index: 4.47 ± 0.23
[2]
  protein stability index: 4.23 ± 0.27

## KMTLTQVSTWFANARRRLKKENKM [IRX6]
[1]
  protein stability index: 2.83 ± 0.29
[2]
  protein stability index: 3.02 ± 0.23

## QALQAGPEGARRGLGVLRALGSRG [FANCE]
[1]
  protein stability index: 4.38 ± 0.33
[2]
  protein stability index: 4.31 ± 0.26

## QRLGIPKDPRQWTETHVRDWVMWA [ETS1]
[1]
  protein stability index: 2.37 ± 0.31
[2]
  protein stability index: 2.48 ± 0.3

## INLEEKEKQIRSFLIEGPLINTIR [PLEKHN1]
[1]
  protein stability index: 2.5 ± 0.13
[2]
  protein stability index: 2.67 ± 0.31

## DTILKYLKDHFSHLLGIPHSVLQI [IQUB]
[1]
  protein stability index: 2.61 ± 0.43
[2]
  protein stability index: 2.63 ± 0.67

## VVCVLLNLAGFILGCQGAQFVSSV [FAM189A2]
[1]
  protein stability index: 3.35 ± 0.99
[2]
  protein stability index: 2.21 ± 0.42

## AEFEKLSDQVKISEEALRADGFGD [SAT2]
[1]
  protein stability index: 5.33 ± 0.11
[2]
  protein stability index: 5.45 ± 0.15

## QKPEFQDLSVEERSFVEKHRWPSN [RHOBTB3]
[1]
  protein stability index: 4.08 ± 0.34
[2]
  protein stability index: 4.04 ± 0.17

## EDEDDDSADMDESDEDDEEERRRR [FBXO3]
[1]
  protein stability index: 5.65 ± 0.27
[2]
  protein stability index: 5.69 ± 0.12

## LDPAYTTLEFENVQVLTMGNDTSP [HNF4A]
[1]
  protein stability index: 5.58 ± 0.15
[2]
  protein stability index: 5.46 ± 0.18

## TPPHLTSAMAENILAAACESETRK [NOL4L]
[1]
  protein stability index: 4.16 ± 0.47
[2]
  protein stability index: 4.35 ± 0.2

## PAWGHCFYRLYQDLETHRLPCTSR [SCNN1D]
[1]
  protein stability index: 2.32 ± 0.12
[2]
  protein stability index: 2.62 ± 0.32

## SRQIPAPQGAVLVQREKDLPNYNW [KISS1]
[1]
  protein stability index: 3.78 ± 0.29
[2]
  protein stability index: 3.79 ± 0.14

## RLCLPALSQMGAQSSGKILLCPLC [TRIM15]
[1]
  protein stability index: 2.35 ± 0.3
[2]
  protein stability index: 2.41 ± 0.21

## LICKYDFIMLSCVQLQRIPLSAVY [TPRG1]
[1]
  protein stability index: 3.2 ± 0.37
[2]
  protein stability index: 3.36 ± 0.83

## NFGEFKCSDSDKKCHLWTAMDLGF [CLCN6]
[1]
  protein stability index: 2.19 ± 0.32
[2]
  protein stability index: 2.34 ± 0.46

## EPCGPGKSKLTYMCRVDLRGHMPE [DLC1]
[1]
  protein stability index: 2.45 ± 0.29
[2]
  protein stability index: 2.11 ± 0.52

## PSPSTLEPHPRPLLQRELMVPGTR [TNXB]
[1]
  protein stability index: 4.4 ± 0.24
[2]
  protein stability index: 4.36 ± 0.59

## AYCLDQGAEDGDRAILYPCHGMSS [GALNT9]
[1]
  protein stability index: 3.67 ± 0.29
[2]
  protein stability index: 3.69 ± 0.11

## SLLTNWPSVPPTIKEEENSEEELA [MYBL2]
[1]
  protein stability index: 5.41 ± 0.26
[2]
  protein stability index: 5.28 ± 0.28

## ISGVTKAISSPTVSRLTDTTKFTG [TPPP]
[1]
  protein stability index: 3.89 ± 0.27
[2]
  protein stability index: 3.85 ± 0.17

## HSGDLGQLDGLGFLYVTGHIKEIL [ACSBG2]
[1]
  protein stability index: 2.09 ± 0.17
[2]
  protein stability index: 2.19 ± 0.32

## LAKALLKRTAQAIEPYITNFFNQV [PDS5B]
[1]
  protein stability index: 2.58 ± 0.71
[2]
  protein stability index: 2.7 ± 0.72

## EIPIHGNGEARQLPEDDGLEQDLQ [ARFIP2]
[1]
  protein stability index: 5.04 ± 0.36
[2]
  protein stability index: 5.28 ± 0.12

## DGMRNKETLEGREKAFIAHFQDNL [MED27]
[1]
  protein stability index: 4.35 ± 0.17
[2]
  protein stability index: 4.2 ± 0.17

## MGQCRSANAEDAQEFSDVERAIET [S100A14]
[1]
  protein stability index: 4.99 ± 0.32
[2]
  protein stability index: 5.15 ± 0.2

## TFDVDEYEHYERVENGDFNWIVPG [CDC14A]
[1]
  protein stability index: 4.11 ± 0.26
[2]
  protein stability index: 4.17 ± 0.17

## YFYDPIERDIEIGFLPWLMNEVEK [RSPH3]
[1]
  protein stability index: 2.04 ± 0.74
[2]
  protein stability index: 2.42 ± 0.25

## PASDLEAALEAAGEGLNVIQQTTR [NANOGP8]
[1]
  protein stability index: 4.93 ± 0.17
[2]
  protein stability index: 4.95 ± 0.44

## DVTCFLLPHPGLQVATSPDFDGKL [ATL3]
[1]
  protein stability index: 2.58 ± 0.27
[2]
  protein stability index: 2.69 ± 0.35
